Measured values published in patent US20210292396A1.
Substitutions are numbered along the chain they refer to.

What was measured:
Assay in all cases: cell-based or functional assay
[1] = molecular target: Env of HIV isolate HT593.1 (clade B) (HIV)
[2] = molecular target: Env of HIV isolate 25925-2.22 (clade C) (HIV)
[3] = molecular target: Env of HIV isolate 6644.v2.c33 (clade C) (HIV)
[4] = molecular target: Env of HIV isolate 5768.04 (clade B) (HIV)
[5] = molecular target: Env of HIV isolate MB539.2B7 (clade A) (HIV)
[6] = molecular target: HIV Env of isolate 6471.v1.c16 (HIV)
[7] = molecular target: Env of SIVmac251.30.SG3
[8] = molecular target: Env of HIV isolate BI369.9A (clade A) (HIV)
[9] = molecular target: HIV Env of isolate P1981.C5.3 (HIV)
[10] = molecular target: HIV Env of isolate ZM233.6 (HIV)
[11] = molecular target: Env of HIV isolate 3718.v3.c11 (clade A) (HIV)
[12] = molecular target: HIV Env of isolate 25710-2.43 (HIV)
[13] = molecular target: Env of HIV isolate 16055-2.3 (clade C) (HIV)
[14] = molecular target: Env of HIV isolate 0921.v2.c14 (clade C) (HIV)
[15] = molecular target: Env of HIV isolate 25710-2.43 (clade C) (HIV)
[16] = molecular target: Env of HIV isolate JRFL.JB (clade B) (HIV)
[17] = molecular target: Env of HIV isolate CNE19 (clade BC) (HIV)
[18] = molecular target: Envelope protein of SVA.MLV (clade NA)
[19] = molecular target: HIV Env of isolate X2088.c9 (HIV)
[20] = molecular target: HIV Env of isolate 16936-2.21 (HIV)
[21] = molecular target: Env of HIV isolate CNE21 (clade BC) (HIV)
[22] = molecular target: Env of HIV isolate THRO.18 (clade B) (HIV)
[23] = molecular target: Env of HIV isolate 398-F1.F6.20 (clade A) (HIV)
[24] = molecular target: Env of HIV isolate Q23.17 (clade A) (HIV)
[25] = molecular target: Env of HIV isolate BJOX025000.01.1 (clade AE) (HIV)
[26] = molecular target: HIV Env of isolate ZM249.1 (HIV)
[27] = molecular target: Env of HIV isolate 6631.v3.c10 (clade C) (HIV)
[28] = molecular target: Env of HIV isolate 0077.v1.c16 (clade C) (HIV)
[29] = molecular target: Env of HIV isolate AC10.29 (clade B) (HIV)
[30] = molecular target: Env of HIV isolate Q461.e2 (clade AD) (HIV)
[31] = molecular target: Env of HIV isolate SO18.18 (clade C) (HIV)
[32] = molecular target: Env of HIV isolate BR07.DG (clade B) (HIV)
[33] = molecular target: Env of HIV isolate 3326.v4.c3 (clade CD) (HIV)
[34] = molecular target: Env of HIV isolate X1632.S2.B10 (clade G) (HIV)
[35] = molecular target: Env of HIV isolate C4118.09 (clade AE) (HIV)
[36] = molecular target: Env of HIV isolate HO86.8 (clade B) (HIV)
[37] = molecular target: Env of HIV isolate T278-50 (clade AG) (HIV)
[38] = molecular target: Env of HIV isolate 3168.v4.c10 (clade C) (HIV)
[39] = molecular target: HIV Env of isolate CAP244.D3 (HIV)
[40] = molecular target: Env of HIV isolate 3337.v2.c6 (clade CD) (HIV)
[41] = molecular target: Env of HIV isolate 247-23 (clade D) (HIV)
[42] = molecular target: Env of HIV isolate 26191-2.48 (clade C) (HIV)
[43] = molecular target: Env of HIV isolate X2131.C1.B5 (clade G) (HIV)
[44] = molecular target: Env of HIV isolate UG037.8 (clade A) (HIV)
[45] = molecular target: Env of HIV isolate T253-11 (clade AG) (HIV)
[46] = molecular target: Env of HIV isolate CNE12 (clade B) (HIV)
[47] = molecular target: HIV Env of isolate 3326.v4.c3 (HIV)
[48] = molecular target: HIV Env of isolate CH119.10 (HIV)
[49] = molecular target: Env of HIV isolate TZA125.17 (clade C) (HIV)
[50] = molecular target: Env of HIV isolate SC422.8 (clade B) (HIV)

B1: ePGT121.18 (ePGT121.18.H1 VH and ePGT121.17.L1 VL) (antibody, V domains shown)
VH: QMQLQESGPGLVKPGETLSLTCSVSGASISSSYWSWLRETPGKGLEWIGYTHHSGDTNYAPSLKSRVHLGLHPSKNQVSLSLTSVTAADTAVYYCARTLHGRRIYGVVAFNEYYTYFYWPTWGKGTQVTVSS
VL: SDISVAPGETVRITCGGESIGSRAVQWYQHRPGQAPRLIIYNNQDRPPGIPERFSGSPDIDFGTTATLTISNVEAGDEATYYCHIWDSRRPTNWELGPGTTLTVL
[1]
  IC50, pseudovirus neutralization: 0.003 µg/mL
[2]
  IC50, pseudovirus neutralization: 0.003 µg/mL
[3]
  IC50, pseudovirus neutralization: 0.002 µg/mL
[4]
  IC50, pseudovirus neutralization: 0.004 µg/mL
[5]
  IC50, pseudovirus neutralization: > 50 µg/mL
[6]
  IC80, pseudovirus neutralization (M1): 2.94 µg/mL
  IC80, pseudovirus neutralization (M2): 2.62 µg/mL
[7]
  IC80, pseudovirus neutralization (M1): > 50 µg/mL
  IC80, pseudovirus neutralization (M2): > 50 µg/mL
[8]
  IC50, pseudovirus neutralization: 0.001 µg/mL
[9]
  IC80, pseudovirus neutralization (M1): 0.003 µg/mL
  IC80, pseudovirus neutralization (M2): 0.003 µg/mL
[10]
  IC80, pseudovirus neutralization (M1): 0.024 µg/mL
  IC80, pseudovirus neutralization (M2): 0.024 µg/mL
[11]
  IC50, pseudovirus neutralization: 0.267 µg/mL
[12]
  IC80, pseudovirus neutralization (M1): 0.01 µg/mL
  IC80, pseudovirus neutralization (M2): 0.013 µg/mL
[13]
  IC50, pseudovirus neutralization: 0.011 µg/mL
[14]
  IC50, pseudovirus neutralization: 0.091 µg/mL
[15]
  IC50, pseudovirus neutralization: 0.004 µg/mL
[16]
  IC50, pseudovirus neutralization: 0.006 µg/mL
[17]
  IC50, pseudovirus neutralization: 0.001 µg/mL
[18]
  IC50, pseudovirus neutralization: > 50 µg/mL
[19]
  IC80, pseudovirus neutralization (M1): 0.005 µg/mL
  IC80, pseudovirus neutralization (M2): 0.009 µg/mL
[20]
  IC80, pseudovirus neutralization (M1): 0.003 µg/mL
  IC80, pseudovirus neutralization (M2): 0.005 µg/mL
[21]
  IC50, pseudovirus neutralization: 0.0009 µg/mL
[22]
  IC50, pseudovirus neutralization: > 50 µg/mL
[23]
  IC50, pseudovirus neutralization: 0.003 µg/mL
[24]
  IC50, pseudovirus neutralization: 0.002 µg/mL
[25]
  IC50, pseudovirus neutralization: > 50 µg/mL
[26]
  IC80, pseudovirus neutralization (M1): 0.992 µg/mL
  IC80, pseudovirus neutralization (M2): 0.874 µg/mL
[27]
  IC50, pseudovirus neutralization: 0.01 µg/mL
[28]
  IC50, pseudovirus neutralization: > 50 µg/mL
[29]
  IC50, pseudovirus neutralization: 0.001 µg/mL
[30]
  IC50, pseudovirus neutralization: > 50 µg/mL
[31]
  IC50, pseudovirus neutralization: 0.003 µg/mL
[32]
  IC50, pseudovirus neutralization: 0.005 µg/mL
[33]
  IC50, pseudovirus neutralization: 0.306 µg/mL
[34]
  IC50, pseudovirus neutralization: > 50 µg/mL
[35]
  IC50, pseudovirus neutralization: > 50 µg/mL
[36]
  IC50, pseudovirus neutralization: > 50 µg/mL
[37]
  IC50, pseudovirus neutralization: 1.17 µg/mL
[38]
  IC50, pseudovirus neutralization: 0.012 µg/mL
[39]
  IC80, pseudovirus neutralization (M1): > 50 µg/mL
  IC80, pseudovirus neutralization (M2): > 50 µg/mL
[40]
  IC50, pseudovirus neutralization: 0.232 µg/mL
[41]
  IC50, pseudovirus neutralization: > 50 µg/mL
[42]
  IC50, pseudovirus neutralization: 0.003 µg/mL
[43]
  IC50, pseudovirus neutralization: 0.0009 µg/mL
[44]
  IC50, pseudovirus neutralization: 0.002 µg/mL
[45]
  IC50, pseudovirus neutralization: 0.004 µg/mL
[46]
  IC50, pseudovirus neutralization: 0.002 µg/mL
[47]
  IC80, pseudovirus neutralization (M1): 2.15 µg/mL
  IC80, pseudovirus neutralization (M2): 6.86 µg/mL
[48]
  IC80, pseudovirus neutralization (M1): 0.01 µg/mL
  IC80, pseudovirus neutralization (M2): 0.014 µg/mL
[49]
  IC50, pseudovirus neutralization: 0.028 µg/mL
[50]
  IC50, pseudovirus neutralization: 0.005 µg/mL

B2: ePGT121.18.17 (ePGT121.18.H17 VH and ePGT121.17.L1 VL) (antibody, V domains shown)
VH: B1 VH with H68T, L69I, H72D
VL: B1 VL
[1]
  IC50, pseudovirus neutralization: 0.014 µg/mL
[2]
  IC50, pseudovirus neutralization: 0.011 µg/mL
[3]
  IC50, pseudovirus neutralization: 0.005 µg/mL
[4]
  IC50, pseudovirus neutralization: 0.029 µg/mL
[5]
  IC50, pseudovirus neutralization: > 50 µg/mL
[6]
  IC80, pseudovirus neutralization: 10 µg/mL
[7]
  IC80, pseudovirus neutralization: > 50 µg/mL
[8]
  IC50, pseudovirus neutralization: 0.004 µg/mL
[9]
  IC80, pseudovirus neutralization: 0.005 µg/mL
[10]
  IC80, pseudovirus neutralization: 0.065 µg/mL
[11]
  IC50, pseudovirus neutralization: 0.957 µg/mL
[12]
  IC80, pseudovirus neutralization: 0.026 µg/mL
[13]
  IC50, pseudovirus neutralization: 0.036 µg/mL
[14]
  IC50, pseudovirus neutralization: 0.189 µg/mL
[15]
  IC50, pseudovirus neutralization: 0.008 µg/mL
[16]
  IC50, pseudovirus neutralization: 0.011 µg/mL
[17]
  IC50, pseudovirus neutralization: 0.003 µg/mL
[18]
  IC50, pseudovirus neutralization: > 50 µg/mL
[19]
  IC80, pseudovirus neutralization: 0.017 µg/mL
[20]
  IC80, pseudovirus neutralization: 0.011 µg/mL
[21]
  IC50, pseudovirus neutralization: 0.002 µg/mL
[22]
  IC50, pseudovirus neutralization: > 50 µg/mL
[23]
  IC50, pseudovirus neutralization: 0.005 µg/mL
[24]
  IC50, pseudovirus neutralization: 0.006 µg/mL
[25]
  IC50, pseudovirus neutralization: > 50 µg/mL
[26]
  IC80, pseudovirus neutralization: 4.25 µg/mL
[27]
  IC50, pseudovirus neutralization: 0.063 µg/mL
[28]
  IC50, pseudovirus neutralization: > 50 µg/mL
[29]
  IC50, pseudovirus neutralization: 0.004 µg/mL
[30]
  IC50, pseudovirus neutralization: > 50 µg/mL
[31]
  IC50, pseudovirus neutralization: 0.004 µg/mL
[32]
  IC50, pseudovirus neutralization: 0.008 µg/mL
[33]
  IC50, pseudovirus neutralization: 0.633 µg/mL
[34]
  IC50, pseudovirus neutralization: > 50 µg/mL
[35]
  IC50, pseudovirus neutralization: > 50 µg/mL
[36]
  IC50, pseudovirus neutralization: > 50 µg/mL
[37]
  IC50, pseudovirus neutralization: 1.2 µg/mL
[38]
  IC50, pseudovirus neutralization: 0.053 µg/mL
[39]
  IC80, pseudovirus neutralization: > 50 µg/mL
[40]
  IC50, pseudovirus neutralization: 0.363 µg/mL
[41]
  IC50, pseudovirus neutralization: > 50 µg/mL
[42]
  IC50, pseudovirus neutralization: 0.011 µg/mL
[43]
  IC50, pseudovirus neutralization: 0.002 µg/mL
[44]
  IC50, pseudovirus neutralization: 0.009 µg/mL
[45]
  IC50, pseudovirus neutralization: 0.025 µg/mL
[46]
  IC50, pseudovirus neutralization: 0.004 µg/mL
[47]
  IC80, pseudovirus neutralization: 32 µg/mL
[48]
  IC80, pseudovirus neutralization: 0.028 µg/mL
[49]
  IC50, pseudovirus neutralization: 0.18 µg/mL
[50]
  IC50, pseudovirus neutralization: 0.016 µg/mL
